Measurements from the emibetuzumab library of Makowski et al. (2022).

B1: VH:VL chains; a variant is named by its letters at X, in order (parent)
chain 1: QVQLVQSGAEVKKPGASVKVSCKASGYTFTDYXMHWVRQAPGQGLEWMGXVNPNXXXTTYNQKFEGRVTMTTDTSTSTAYMELRSLRSDDTAVYYCARXNXLDXWGQGTTVTVSS
chain 2: DIQMTQSPSSLSASVGDRVTITCSVSSSVSSIYLHWYQQKPGKAPKLLIYSTSNLASGVPSRFSGSGSGTDFTLTISSLQPEDFATYYCQVYSGYPLTFGGGTKVEIK

Variants of: B1
Assay: yeast display scFab, FACS + sequencing
Procedure, shortened: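 The non-specific binding call was based on sorted and sequenced yeast displaying a heavy-chain CDR mutant scFab library. Labelling used anti-Myc with biotinylated ovalbumin (260 μg/mL in PBSB, 3 h, room temperature) or soluble membrane proteins (130 μg/mL, 20 min on ice), and FACS collected the top 25% and bottom 10% of binders in two replicates. Positive meant present in ≥3 of 4 pooled positive samples and in no negatives, and negative meant the converse.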

Variant | non-specific binding call
YRRGGFVV | binds
FRRGGAVD | binds
FRRGGAVV | binds
FRRGSSVV | binds
FRRGGSLD | binds
ARRRGSGA | binds
FRRRGSSD | binds
YRRRGDWA | binds
YRRRGDWD | binds
YRRRGDWY | binds
FRRGGSVD | binds
YRRGSSLV | binds
YRRGSSLF | binds
YRRGSSLY | binds
YRRGSSLS | binds
VRRGSASD | binds
ARRGSAVS | binds
FRRGSSAA | binds
FRRGSSAV | binds
ARRGSDVA | no binding
YRRGGSVF | binds
YRRGGSVD | binds
YRRGGSVS | binds
YRRGGSVA | binds

Variant | non-specific binding call
YRRGTSVD | binds
YRRGSSAA | binds
YRRGSSAV | binds
DRRRGALD | binds
ARRGGSVD | binds
YRRKGAAY | binds
YRRGGSSA | binds
FRRGSALA | binds
VRRGSAGD | binds
VRRGSAGS | binds
VRRRGAAD | binds
DRRRGSGA | binds
VRRKSSSV | binds
ARRGSDLA | no binding
VRRKDFLA | binds
VRRRGSGD | binds
YRRGSAGF | binds
YRRGSAGS | binds
YRRGGSGY | binds
YRRGGSGA | binds
YRRGGSGD | binds
YRRGGSGS | binds
YRRGGSLS | binds
YRRKGSSA | binds

Variant | non-specific binding call
YRRKGSSS | binds
YRRGGAGF | binds
YRRGGAGV | binds
YRRGGAGY | binds
SRRGGYVS | binds
FRRGGAWV | binds
FRRGGAWD | binds
FRRGGAWY | binds
ARRRGAWY | binds
YRRKGALV | binds
YRRRGASA | binds
YRRRGASS | binds
YRRRGASD | binds
YRRRGASF | binds
YRRRGASV | binds
YRRGGAVA | binds
YRRGGAVS | binds
FRRRDAAF | binds
YRRGGAAD | binds
YRRGGAAS | binds
YRRGGAAY | binds
YRRGGAAV | binds
YRRGGAAA | binds
YRRGGAAF | binds

Variant | non-specific binding call
VRRRGAGV | binds
VRRRGAGD | binds
SRRGSASS | binds
FRRGSSGA | binds
FRRGSSGD | binds
FRRGSSGS | binds
FRRGGAGD | binds
FRRGGAGY | binds
VRRGSSAS | binds
VRRGSSAV | binds
VRRGSSAD | binds
VRRGSSAF | binds
YRRKGSVD | binds
YRRRGDAD | binds
YRRRGDAA | binds
FRRGGAAS | binds
FRRGGAAA | binds
YRRGGVGA | binds
YRRGGVGV | binds
FRRGGSGV | binds
FRRGGSGS | binds
VRRGSFGA | binds
YRRGSAWA | binds
FRRRGSGD | binds

Variant | non-specific binding call
VRRGGAAS | binds
VRRGGAAA | binds
YRRGSASS | binds
YRRGSASD | binds
YRRGSASV | binds
VRRGSSGD | binds
YRRRGDGY | binds
YRRRGDGV | binds
YRRRGDGD | binds
YRRRGDVV | binds
YRRRGDVD | binds
YRRRGDVY | binds
YRRGGDGA | binds
SRRRGALD | binds
YRRRGSAF | binds
YRRRGSAD | binds
YRRRGSAS | binds
YRRRGAVA | binds
YRRRGAVF | binds
YRRRGAVD | binds
YRRRGAVY | binds
FRRGGSAA | binds
FRRGGSAF | binds
FRRGGSAD | binds

Variant | non-specific binding call
YRRRGFAV | binds
YRRRGFAA | binds
YRRGSFGA | binds
FRRRGALD | binds
YRRGGFGV | binds
YRRGGFGA | binds
ARRRGSAA | binds
YRRRGSLF | binds
YRRRGSLY | binds
YRRRGSLD | binds
YRRRGSLS | binds
YRRRGSLV | binds
YRRRGSLA | binds
SRRRGSAA | binds
ARRRGAAA | binds
DRRKAFSA | binds
YRRGGALD | binds
YRRGGALV | binds
YRRGGALA | binds
YRRGGAWV | binds
YRRGGAWD | binds
YRRGGAWY | binds
YRRGGAWS | binds
YRRGGAWA | binds

Variant | non-specific binding call
YRRKDALA | binds
YRRRGSGS | binds
YRRRGSGV | binds
YRRRGSGF | binds
YRRRGSGA | binds
YRRRGSGY | binds
FRRRGAAD | binds
FRRRGAAA | binds
YRRRGSVV | binds
YRRRGSVS | binds
YRRRGSVF | binds
YRRRGSVA | binds
YRRRGSVD | binds
YRRRGDLD | binds
YRRGSSGS | binds
YRRGSSGF | binds
YRRGSSGA | binds
YRRGGYAV | binds
VRRRGSAF | binds
VRRGSSLF | binds
VRRRGALA | binds
VRRRGALD | binds
YRRGSSSV | binds
YRRGSSSA | binds

Variant | non-specific binding call
FRRRGSAA | binds
FRRRGSAD | binds
YRRRGAWS | binds
YRRRGAWA | binds
YRRRGAWD | binds
YRRRGAWF | binds
YRRRGAWV | binds
FRRRGAWA | binds
FRRRGAWY | binds
YRRGSYVY | binds
YRRGSSVF | binds
YRRGSSVS | binds
YRRGSSVV | binds
YRRKGASV | binds
YRRGGSAV | binds
YRRGGSAA | binds
YRRKGAGD | binds
ARRGGSGF | binds
ARRGGSGS | binds
VRRRGSWV | binds
YRRGGYVD | binds
YRRGSALY | binds
YRRGSALS | binds
FRRKDDWA | binds

Variant | non-specific binding call
VRRGGSAA | binds
DRRGSDAV | no binding
YRRRGAAA | binds
YRRRGAAD | binds
YRRRGAAY | binds
YRRRGAAF | binds
YRRRGAAS | binds
YRRKGSGA | binds
YRRKGSGY | binds
YRRRGSSF | binds
YRRRGSSA | binds
YRRRGSSD | binds
YRRRGSSS | binds
VRRGGALD | binds
FRRGSAVA | binds
YRRRGVAA | binds
YRRRGVAD | binds
FRRGGASA | binds
YRRRGFWY | binds
YRRGGSWV | binds
YRRGGSWD | binds
FRRGGALD | binds
YRRGGASA | binds
YRRGGASD | binds

Variant | non-specific binding call
YRRGSFAA | binds
YRRRGSWA | binds
YRRRGSWV | binds
YRRRGSWS | binds
YRRRGSWD | binds
YRRRGALF | binds
YRRRGALS | binds
YRRRGALA | binds
YRRRGALY | binds
FRRRGDWY | binds
VRRGSDGV | no binding
YRRRGFVV | binds
YRRRGFVA | binds
YRRRGFVD | binds
VRRRGAVV | binds
FRRRGSLV | binds
FRRRGSLY | binds
YRRRDSSA | binds
VRRGSSVV | binds
VRRGSSVS | binds
SRRRGAWY | binds
YRRRGAGY | binds
YRRRGAGF | binds
YRRRGAGD | binds

Variant | non-specific binding call
YRRRGAGV | binds
YRRRGAGA | binds
YRRRGFGV | binds
YRRRGFGS | binds
YRRRGFGA | binds
YRRRGFGD | binds
YRRRGFGY | binds
ARRGSSLD | no binding
YRRGSVGV | binds
YRRGSVGA | binds
YRRKGDAD | binds
FRRRGAVD | binds
FRRRGAVA | binds
YRRGSAVA | binds
YRRGSAVY | binds
YRRGSAVD | binds
VRRGGSGD | binds
VRRGGSGS | binds
VRRRGSLF | binds
VRRGGAWV | binds
